Data as given in patent US20250270315A1 (ELPISCIENCE SUZHOU BIOPHARMA, published 2025).
Where two headings read alike, the source gives them in different places.

How the values were obtained:
[1] = molecular target: T1, human SIRPα v2 ECD recombinant protein (tag not given) (human); test: competitive ELISA, mFc-CD47 ECD on coated SIRPα v2 ECD
T1 construct: extracellular domain; also called ELISA microplate coated human SIRPα v2 ECD
Method: (§1) Competitive ELISA assay was used to determine whether the purified chimeric antibodies can block CD47 and SIRPα interaction. Briefly, antibody and mFc tagged human CD47 ECD recombinant protein were co-incubated with ELISA microplate coated human SIRPα v1 ECD (FIGS. 6A and 6B) or human SIRPα v2 ECD (FIGS. 7A and 7B) recombinant protein. After washing, HRP labeled anti-mouse Fc 2nd antibody (Sigma) was added and incubated at 37° C. for 1 hour. Then, 100 μl/well of TMB solution (Biotechnology) was added. After incubation for 15 minutes at room temperature, the reaction was stopped by the addition of 50 μl of 1N HCl. OD 450 nm was read. Blocking ratio was determined by blockade of human CD47 ECD recombinant protein binding to ELISA microplate coated human SIRPα ECD recombinant protein. Other than 005, all antibodies as tested can block interaction between human CD47 and different human SIRPα variants.

[2] = molecular target: T1, human SIRPα v2 ECD recombinant protein …; test: as above; remark: listed apart in the source
Method: as §1
The humanized antibodies were tested for the ability to block CD47 and SIRPα interaction with competitive ELISA assay (refer to methods described in Example 4.2.3.).

[3] = molecular target: T2, mFc tagged human SIRPα v1 ECD recombinant protein (human, UniProt P78324 31-373); test: competitive ELISA binning, mFc-SIRPα v1 ECD; competitor 042c
T2 construct: extracellular domain; Bought from Biointron; not shown: mouse IgG Fc (mFc) tag
Method: (§2) Competitive ELISA assay was used for epitope binning of purified chimeric antibodies. Briefly excessive competitor antibody and mFc tagged human SIRPα v1 ECD recombinant protein were co-incubated with ELISA microplate coated antibody. After washing, HRP labeled anti-mouse Fc 2nd antibody (Sigma) was added and incubated at 37° C. for 1 hour. Then, 100 μl/well of TMB solution (Biotechnology) was added. After incubation for 15 minutes at room temperature, the reaction was stopped by the addition of 50 μl of 1N HCl. OD 450 nm was read. Competition ratio was calculated. The antibodies that can compete each other for binding to SIRPα may have related binding epitopes.

[4] = molecular target: T3, human SIRPβ stably expressed on CHOK1 cells (human, UniProt O00241 30-398); test: FACS, CHOK1 cells stably expressing human SIRPβ
T3 construct: whole, on cells; also called CHOK1-human SIRPB; CHOK1-hSIRPβ
Description: (§3) All the humanized antibodies as tested were confirmed to retain the similar activity as the parental antibody of 025c to bind to SIRP family members.

[5] = molecular target: T4, full length human SIRPα v1 stably expressed on CHOK1 or 293F cells (human, UniProt P78324 31-504); test: FACS, CHOK1-hSIRPα v1 cells
T4 construct: whole, on cells; also called CHOK1-human SIRPα v1; CHOK1-hSIRPα v1
Description: as §3

[6] = molecular target: T4, full length human SIRPα v1 stably …; test: competitive FACS, mFc-CD47 ECD on CHOK1-human SIRPα v1 cells
Method in brief: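 Antibody co-incubated with mFc-tagged human CD47 ECD on CHOK1 cells stably expressing human SIRPα v1 or v2; dye-labeled anti-mouse Fc secondary added, 37 °C for 1 h. Fluorescence intensity read; blocking ratio derived from inhibition of CD47 ECD binding to SIRPα-expressing cells.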

[7] = molecular target: T5, human SIRPγ stably expressed on 293F cells (human, UniProt Q9P1W8 29-387); test: FACS, 293F-hSIRPγ cells
T5 construct: whole, on cells
Description: as §3

[8] = molecular target: T5, human SIRPγ stably expressed on 293F …; test: FACS, 293F-human SIRPγ cells
[9] = molecular target: full length human SIRPα v1 with a small beta-gal fragment (ED) fused to its C-terminal, expressed in K562 … (human, UniProt P78324 31-504); test: cell-based or functional assay
[10] = molecular target: T4, full length human SIRPα v1 stably …; test: FACS, CHOK1-hSIRPα v1 cells; remark: listed apart in the source
[11] = molecular target: T6, human SIRPβ ECD recombinant protein (6×His tagged) (human, UniProt O00241 30-371); test: ELISA, recombinant human SIRPβ ECD
T6 construct: extracellular domain; Bought from Sino Biological; also called hSIRPβ ECD; not shown: 6×His tag
Description: Binding activity of the purified chimeric antibodies against SIRPβ and SIRPBI was detected by ELISA assay using recombinant proteins of human SIRPβ ECD (FIGS. 3A and 3B), human SIRPBI ECD (FIGS. 3D and 3E) and FACS assay using CHOK 1 cells stably expressing human SIRPB (FIG. 3C).

[12] = molecular target: T2, mFc tagged human SIRPα v1 ECD …; test: competitive ELISA binning, mFc-SIRPα v1 ECD; competitor 025c
Method: as §2

[13] = molecular target: T7, human SIRPα v1 ECD recombinant protein (tag not given) (human, UniProt P78324 31-373); test: competitive ELISA, coated human SIRPα v1 ECD, blocked ligand mFc tagged human CD47 ECD
T7 construct: extracellular domain; also called biotin labeled soluble human SIRPα v1 ECD recombinant protein; ELISA microplate coated human SIRPα v1 ECD
Method: as §1

[14] = molecular target: T2, mFc tagged human SIRPα v1 ECD …; test: competitive ELISA binning, mFc-SIRPα v1 ECD; competitor hu1H9G4
Method: as §2

T4 sequence (P78324 31-504): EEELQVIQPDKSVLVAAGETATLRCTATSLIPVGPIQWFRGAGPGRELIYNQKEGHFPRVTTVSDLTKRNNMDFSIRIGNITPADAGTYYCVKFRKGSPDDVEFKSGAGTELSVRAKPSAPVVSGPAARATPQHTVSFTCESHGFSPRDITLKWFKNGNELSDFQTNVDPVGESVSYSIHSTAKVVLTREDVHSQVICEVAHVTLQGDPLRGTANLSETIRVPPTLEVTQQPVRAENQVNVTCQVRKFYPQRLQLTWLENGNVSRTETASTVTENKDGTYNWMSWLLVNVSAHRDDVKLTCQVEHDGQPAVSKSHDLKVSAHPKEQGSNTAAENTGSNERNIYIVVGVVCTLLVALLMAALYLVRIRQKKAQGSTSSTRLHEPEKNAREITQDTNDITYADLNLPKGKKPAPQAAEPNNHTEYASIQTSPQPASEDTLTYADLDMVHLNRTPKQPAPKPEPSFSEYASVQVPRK
T5 sequence (Q9P1W8 29-387): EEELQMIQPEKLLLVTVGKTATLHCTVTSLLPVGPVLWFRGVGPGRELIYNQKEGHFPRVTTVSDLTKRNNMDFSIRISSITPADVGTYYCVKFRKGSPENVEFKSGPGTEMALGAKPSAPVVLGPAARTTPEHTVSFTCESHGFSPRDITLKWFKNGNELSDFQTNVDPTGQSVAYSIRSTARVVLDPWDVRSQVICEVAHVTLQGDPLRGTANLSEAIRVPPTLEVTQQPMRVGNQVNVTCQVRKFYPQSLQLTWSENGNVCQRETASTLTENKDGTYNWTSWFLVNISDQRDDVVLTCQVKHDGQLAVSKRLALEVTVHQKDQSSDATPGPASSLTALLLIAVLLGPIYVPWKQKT
T2 sequence (P78324 31-373): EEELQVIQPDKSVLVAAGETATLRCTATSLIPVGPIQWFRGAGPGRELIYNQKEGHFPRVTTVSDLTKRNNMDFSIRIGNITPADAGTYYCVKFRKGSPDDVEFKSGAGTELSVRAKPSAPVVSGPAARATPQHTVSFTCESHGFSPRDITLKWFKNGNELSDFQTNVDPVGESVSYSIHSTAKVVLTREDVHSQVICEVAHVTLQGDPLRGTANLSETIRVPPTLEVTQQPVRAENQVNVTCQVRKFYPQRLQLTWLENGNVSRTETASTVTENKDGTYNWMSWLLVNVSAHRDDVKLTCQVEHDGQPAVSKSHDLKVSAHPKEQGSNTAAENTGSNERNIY
full length human SIRPα v1 with a small beta-gal fragment (ED) fused to its C-terminal, expressed in K562 …, sequence (P78324 31-504): as the sequence (P78324 31-504) above
T3 sequence (O00241 30-398): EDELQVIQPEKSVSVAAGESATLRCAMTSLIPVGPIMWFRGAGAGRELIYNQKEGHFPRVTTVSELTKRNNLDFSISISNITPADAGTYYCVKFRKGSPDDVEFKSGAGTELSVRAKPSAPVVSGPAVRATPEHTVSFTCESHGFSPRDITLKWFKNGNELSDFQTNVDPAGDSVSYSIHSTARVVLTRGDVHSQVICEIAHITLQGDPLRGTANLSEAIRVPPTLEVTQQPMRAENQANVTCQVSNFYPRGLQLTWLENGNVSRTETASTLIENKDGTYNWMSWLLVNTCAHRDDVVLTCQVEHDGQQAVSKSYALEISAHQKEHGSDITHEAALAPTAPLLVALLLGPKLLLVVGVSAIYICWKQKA
T7 sequence (P78324 31-373): as the sequence (P78324 31-373) above
T6 sequence (O00241 30-371): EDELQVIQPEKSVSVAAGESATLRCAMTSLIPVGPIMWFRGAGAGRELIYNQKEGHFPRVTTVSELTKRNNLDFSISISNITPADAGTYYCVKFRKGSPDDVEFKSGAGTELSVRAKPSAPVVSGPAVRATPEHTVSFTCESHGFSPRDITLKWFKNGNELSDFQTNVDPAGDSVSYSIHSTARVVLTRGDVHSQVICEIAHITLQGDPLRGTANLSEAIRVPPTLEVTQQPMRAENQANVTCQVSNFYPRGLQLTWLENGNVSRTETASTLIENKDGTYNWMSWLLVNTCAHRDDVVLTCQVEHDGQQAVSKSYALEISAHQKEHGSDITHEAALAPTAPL

B1: 025c (antibody, V domains shown)
VH: EVQLQQSGAELVKPGASVKLSCTASGFNIKDYYMHWVKQRTEQGLEWIGRIDPEDGETKYAPKFQGKATITADTSSNTAYLQLSSLTSEDTAVYYCDRGLAYWGQGTLVTVSA
VL: QIVLTQSPAIMSASPGEKVTLTCSASSSVSSSYLYWYQQKPGSSPKLWIYSTSNLASGVPARFSGSGSGTSYSLTISSMEAEDAASYFCHQWSSYPYTFGGGTKLEIK
notes: also called chimeric antibody 025c; parental antibody of 025c
In the case of B1, the IC50 [1] is reported as 2.21 nM, the “TOP blocking (%)” value [1] is reported as 96.5% and the IC50 [2] is reported as 1.86 nM. The “TOP blocking (%)” value [2] was 98.6%, the “% Competition” value [3] was 19.1% and the “EC50 (read off the curve)” value [4] was ~0.7 nM. For the same binder, the EC50 [5] was 1.22 nM, the “TOP MFI” value [5] was 64700 MFI and the IC50 [6] was 0.4 nM. The “TOP blocking (%)” value [6] was 97.6%, the EC50 [7] was 0.2 nM and the “TOP MFI” value [7] was 22800 MFI. For the same binder, the EC50 [8] was 0.11 nM, the “TOP MFI” value [8] was 3220 MFI and the “SHP-1 recruitment blocking, IC50” value [9] was 0.28 nM. For the same binder, the “SHP-1 recruitment blocking, TOP blocking (%)” value [9] was 84.5%, the EC50 [10] was 1.49 nM and the “TOP MFI” value [10] was 77600 MFI. The “EC50 (read off the curve)” value [11] was ~0.04 nM, the “% Competition” value [12] was 93.5% and the “IC50 (read off the curve)” value [13] was 2 to 3 nM. The “% Competition” value [14] was 15.3%.
